From patent US20240150440A1 (LUMEN BIOSCIENCE, published 2024)
Where “and” joins values, the source holds several entries; their conditions need not be identical. Equal values may be shown once.

B1: PP900 MBP-5HVZ-R5a-F2-H6 (VHH)
VHH: QVQLVESGGGLVQPGGSLRLSCAASGSISSIEAMSWFRQAPGKQREGVATMASGGDTSYADSVKGRFTISRDNAKNTVYLQMNSLKPEDTAVYYCAAQTYRPDTWGRYTFWGQGTQVTVSS
notes: Form: Dimer
B2: PP934 MBP-5HVZ-S3a-H2-H6 (VHH)
VHH: QVQLVESGGGLVQPGGSLRLSCAASGAAFSKNALHWFRQAPGKGREWVASITSGSGTQYMDSVKGRFTISRDNAKNTVYLQMNSLKPEDTAVYYCAALAYSGGYDYWGQGTQVTVSS
notes: Form: Dimer
B3: PP908 MBP-5HVZ-S2a-C4-H6 (VHH)
VHH: QVQLVESGGGLVQPGGSLRLSCAASGFSESINATAWFRQAPGKQREGVAGLDGGGSDYYSDSVKGRFTISRDNAKNTVYLQMNSLKPEDTAVYYCAAQLTSSFRGYDFTPSNYDYWGQGTQVTVSS
notes: Form: Dimer
B4: PP1102 MBP-5HVZ-PAPA-RN-17-H6 (VHH)
VHH: QVQLVESGGGLVQPGGSLRLSCAASGSMYSRAVMHWFRQAPGKEREGVASIGRTGDSYYADSVKGRFTISRDNAKNTVYLQMNSLKPEDTAVYYCAADNLDVVYGNRYWGQGTQVTVSS
notes: Form: Dimer
B5: PP1106 MBP-5HVZ-PAPA-RN-21-H6 (VHH)
VHH: QVQLVESGGGLVQPGGSLRLSCAASGLQTSDNAMHWFRQAPGKNRELVAGLTSGTSRNYGDSVKGRFTISRDNAKNTVYLQMNSLKPEDTAVYYCAAFPDVGDASSIGFVYWGQGTQVTVSS
notes: Form: Dimer
B6: PP903 MBP-5HVZ-R1i-A11-H6 (VHH)
VHH: QVQLVESGGGLVQPGGSLRLSCAASGSILQINAIHWFRQAPGKQREEVAAITSGGSTGYADSVKGRFTISRDNAKNTVYLQMNSLKPEDTAVYYCAATSTRGGLDSDYWGQGTQVTVSS
notes: Form: Dimer
B7: PP1153 MBP-5HVZ-PAPA-R5d-D4-H6 (VHH)
VHH: QVQLVESGGGLVQPGGSLRLSCAASGSDFTINAMHWFRQAPGKQREFVATITSTSSTAYRDSVKGRFTISRDNAKNTVYLQMNSLKPEDTAVYYCAAFAVRDADTAGWTARDYWGQGTQVTVSS
notes: Form: Dimer
B8: PP1135 MBP-4B0F-PAPA-R5a-B7-H6 (VHH)
VHH: QVQLVESGGGLVQPGGSLRLSCAASGAFFSYGAIHWFRQAPGKQREEVAAITSGGSTGYADSVKGRFTISRDNAKNTVYLQMNSLKPEDTAVYYCNAGVVWLPSNAAYNLWGQGTQVTVSS
notes: Form: Heptamer
B9: PP1159 MPB-scTRP-PAPA-R5a-B7-H6 (VHH)
VHH: B8 VHH
notes: Form: Trimer
B10: PP899 MBP-5HVZ-R5a-B5-H6 (VHH)
VHH: QVQLVESGGGLVQPGGSLRLSCAASGDDFIENAISWYRQAPGKGREWVAAVTLGGHSNYADSVKGRFTISRDNAKNTVYLQMNSLKPEDTAVYYCNYPVGIPAVAIDGRRSYGYWGQGTQVTVSS
notes: Form: Dimer
B11: PP1144 MBP-5HVZ-PAPA-R2c-F6-H6 (VHH)
VHH: QVQLVESGGGLVQPGGSLRLSCAASGRILAANIVHWYRQAPGKEREGVAGITTGGSNYYSDSVKGRFTISRDNAKNTVYLQMNSLKPEDTAVYYCNALGLGSASGSYESWGQGTQVTVSS
notes: Form: Dimer
B12: PP1156 MPB-scTRP-PAPA-R2c-F6-H6 (VHH)
VHH: B11 VHH
notes: Form: Trimer
B13: PP1132 MBP-4B0F-PAPA-R2c-F6-H6 (VHH)
VHH: B11 VHH
notes: Form: Heptamer
B14: PP1133 MBP-4B0F-PAPA-R2d-A6-H6 (VHH)
VHH: QVQLVESGGGLVQPGGSLRLSCAASGSGASIGAMHWFRQAPGKGREWVASITSAGNTYYGDSVKGRFTISRDNAKNTVYLQMNSLKPEDTAVYYCNALAGANYESQWEEYNYWGQGTQVTVSS
notes: Form: Heptamer
B15: PP1157 MPB-scTRP-PAPA-R2d-A6-H6 (VHH)
VHH: B14 VHH
notes: Form: Trimer
B16: PP1134 MBP-4B0F-PAPA-R2d-D3-H6 (VHH)
VHH: QVQLVESGGGLVQPGGSLRLSCAASGHIFSINNAAWVRQAPGKSREGVATIHSGGGTYYSDSVKGRFTISRDNAKNTVYLQMNSLKPEDTAVYYCNAEVSTGAGSRGRVSDVYWGQGTQVTVSS
notes: Form: Heptamer
B17: PP1181 R2d-D3-PP7-H6 (VHH)
VHH: B16 VHH
B18: PP1158 MPB-scTRP-PAPA-R2d-D3-H6 (VHH)
VHH: B16 VHH
notes: Form: Trimer

target: T1, SARS-CoV-2 Beta Variant RBD (SARS-CoV-2 Beta variant); assay: ELISA, RBD coated
T1 construct: domain: RBD; coated on ELISA plates

| Binder | EC50 [nM] |
| --- | --- |
| B1 | 709 |
| B2 | 13.5 |
| B3 | 7.42 |
| B4 | 2 |
| B5 | 3.17 |

target: T2, SARS-CoV-2 Gamma Variant RBD (SARS-CoV-2 Gamma variant); assay: ELISA, RBD coated
T2 construct: domain: RBD; coated on ELISA plates

| Binder | EC50 [nM] |
| --- | --- |
| B1 | 340 |
| B2 | 4.78 |
| B3 | 3.75 |
| B4 | 1.26 |
| B5 | 7.84 |

target: T3, SARS-CoV-2 Alpha Variant RBD (SARS-CoV-2 Alpha variant); assay: ELISA, RBD coated
T3 construct: domain: RBD; coated on ELISA plates

| Binder | EC50 [nM] |
| --- | --- |
| B1 | 34 |
| B2 | 1.56 |
| B3 | 1.74 |
| B6 | 0.28 |
| B7 | 0.91 |
| B4 | 1.55 |
| B5 | 2.05 |

target: T4, SARS-CoV-2 Delta Variant RBD (SARS-CoV-2 Delta variant); assay: ELISA, RBD coated
T4 construct: domain: RBD; coated on ELISA plates

| Binder | EC50 [nM] |
| --- | --- |
| B3 | 2.15 |
| B6 | 0.26 |
| B7 | 223 |

target: T5, SARS-CoV-2 spike protein on pseudotyped lentivirus (Wuhan Reference Pseudovirus) (SARS-CoV-2, UniProt P0DTC2 14-1273); assay: cell-based or functional assay

| Binder | Pseudovirus inhibition IC50 [Cont. 6] [nM] | Pseudovirus inhibition IC50 (second row with the same construct name) [Cont. 6] [nM] |
| --- | --- | --- |
| B8 | 2.13 |  |
| B9 | 7.98 | 215 |
| B1 | 59.3 |  |
| B10 | 5.25 |  |
| B6 | 50.4 |  |

target: T5, SARS-CoV-2 spike protein on pseudotyped …; assay: cell-based or functional assay; remark: another data set of the same source

| Binder | Pseudovirus inhibition IC50 [Cont. 1] [nM] |
| --- | --- |
| B11 | 2.75 |
| B12 | 63.8 |
| B13 | 5.66 |
| B14 | 180 |
| B15 | 54.4 |
| B16 | 5.99 |
| B17 | 5.61 |
| B18 | 123 |

target: T5, SARS-CoV-2 spike protein on pseudotyped …; assay: cell-based or functional assay; remark: another data set of the same source

| Binder | infectivity % under 10 ug/mL VHH treatment [%] |
| --- | --- |
| B8 | -0.03 |
| B9 | 17.7 |
| B1 | 18.3 |
| B10 | 2.43 |
| B11 | 9.18 |
| B12 | 18.1 |
| B13 | 2.65 |
| B3 | 47.5 |
| B6 | 38.4 |
| B14 | 48.1 |
| B15 | 32.9 |
| B7 | 81.7 |
| B4 | 40.9 |
| B5 | 76.6 |
| B16 | 10.9 |
| B17 | 1.57 |
| B18 | 28.8 |

target: SARS-CoV-2 Gamma Variant spike protein on pseudotyped lentivirus (SARS-CoV-2 Gamma variant); assay: cell-based or functional assay

| Binder | Pseudovirus neutralization IC50 [nM] |
| --- | --- |
| B2 | 46300 |
| B3 | 63.1 |
| B7 | 62.9 |
| B4 | 21.5 |
| B5 | 63.4 |

target: T5, SARS-CoV-2 spike protein on pseudotyped …; assay: cell-based or functional assay; remark: another data set of the same source

| Binder | Pseudovirus neutralization IC50 |
| --- | --- |
| B8 | 0.533 nM |
| B9 | 31.9 nM |
| B1 | 29.6 nM |
| B10 | 2.29 nM |
| B11 | 11.9 nM |
| B12 | 36.8 nM |
| B13 | 4.14 nM |
| B3 | 1620 nM |
| B6 | 56.7 nM |
| B14 | 186 nM |
| B15 | 18.9 nM and 19.8 nM |
| B4 | ~5110 nM |
| B16 | 3.97 nM |
| B17 | 6.95 nM |
| B18 | 27.4 nM |
